Laboratory results reported in article PMC5533585.

Target: cytoplasmic dynein-1 heavy chain (human (endogenous in HEK-293)) (UniProt Q14204)
Test: co-IP + SEC; FLAG immunoprecipitate (GF buffer: 50 mM Tris-HCl pH 8.0, 150 mM NaCl, glycerol, 0.2% Triton X-100) run on Superose 6 Increase 10/300 GL; fractions blotted with anti-FLAG, anti-HC, anti-p150; percent = intensity incorporated/(free + incorporated)

UniProt Q14204, sequence (Q14204 whole entry): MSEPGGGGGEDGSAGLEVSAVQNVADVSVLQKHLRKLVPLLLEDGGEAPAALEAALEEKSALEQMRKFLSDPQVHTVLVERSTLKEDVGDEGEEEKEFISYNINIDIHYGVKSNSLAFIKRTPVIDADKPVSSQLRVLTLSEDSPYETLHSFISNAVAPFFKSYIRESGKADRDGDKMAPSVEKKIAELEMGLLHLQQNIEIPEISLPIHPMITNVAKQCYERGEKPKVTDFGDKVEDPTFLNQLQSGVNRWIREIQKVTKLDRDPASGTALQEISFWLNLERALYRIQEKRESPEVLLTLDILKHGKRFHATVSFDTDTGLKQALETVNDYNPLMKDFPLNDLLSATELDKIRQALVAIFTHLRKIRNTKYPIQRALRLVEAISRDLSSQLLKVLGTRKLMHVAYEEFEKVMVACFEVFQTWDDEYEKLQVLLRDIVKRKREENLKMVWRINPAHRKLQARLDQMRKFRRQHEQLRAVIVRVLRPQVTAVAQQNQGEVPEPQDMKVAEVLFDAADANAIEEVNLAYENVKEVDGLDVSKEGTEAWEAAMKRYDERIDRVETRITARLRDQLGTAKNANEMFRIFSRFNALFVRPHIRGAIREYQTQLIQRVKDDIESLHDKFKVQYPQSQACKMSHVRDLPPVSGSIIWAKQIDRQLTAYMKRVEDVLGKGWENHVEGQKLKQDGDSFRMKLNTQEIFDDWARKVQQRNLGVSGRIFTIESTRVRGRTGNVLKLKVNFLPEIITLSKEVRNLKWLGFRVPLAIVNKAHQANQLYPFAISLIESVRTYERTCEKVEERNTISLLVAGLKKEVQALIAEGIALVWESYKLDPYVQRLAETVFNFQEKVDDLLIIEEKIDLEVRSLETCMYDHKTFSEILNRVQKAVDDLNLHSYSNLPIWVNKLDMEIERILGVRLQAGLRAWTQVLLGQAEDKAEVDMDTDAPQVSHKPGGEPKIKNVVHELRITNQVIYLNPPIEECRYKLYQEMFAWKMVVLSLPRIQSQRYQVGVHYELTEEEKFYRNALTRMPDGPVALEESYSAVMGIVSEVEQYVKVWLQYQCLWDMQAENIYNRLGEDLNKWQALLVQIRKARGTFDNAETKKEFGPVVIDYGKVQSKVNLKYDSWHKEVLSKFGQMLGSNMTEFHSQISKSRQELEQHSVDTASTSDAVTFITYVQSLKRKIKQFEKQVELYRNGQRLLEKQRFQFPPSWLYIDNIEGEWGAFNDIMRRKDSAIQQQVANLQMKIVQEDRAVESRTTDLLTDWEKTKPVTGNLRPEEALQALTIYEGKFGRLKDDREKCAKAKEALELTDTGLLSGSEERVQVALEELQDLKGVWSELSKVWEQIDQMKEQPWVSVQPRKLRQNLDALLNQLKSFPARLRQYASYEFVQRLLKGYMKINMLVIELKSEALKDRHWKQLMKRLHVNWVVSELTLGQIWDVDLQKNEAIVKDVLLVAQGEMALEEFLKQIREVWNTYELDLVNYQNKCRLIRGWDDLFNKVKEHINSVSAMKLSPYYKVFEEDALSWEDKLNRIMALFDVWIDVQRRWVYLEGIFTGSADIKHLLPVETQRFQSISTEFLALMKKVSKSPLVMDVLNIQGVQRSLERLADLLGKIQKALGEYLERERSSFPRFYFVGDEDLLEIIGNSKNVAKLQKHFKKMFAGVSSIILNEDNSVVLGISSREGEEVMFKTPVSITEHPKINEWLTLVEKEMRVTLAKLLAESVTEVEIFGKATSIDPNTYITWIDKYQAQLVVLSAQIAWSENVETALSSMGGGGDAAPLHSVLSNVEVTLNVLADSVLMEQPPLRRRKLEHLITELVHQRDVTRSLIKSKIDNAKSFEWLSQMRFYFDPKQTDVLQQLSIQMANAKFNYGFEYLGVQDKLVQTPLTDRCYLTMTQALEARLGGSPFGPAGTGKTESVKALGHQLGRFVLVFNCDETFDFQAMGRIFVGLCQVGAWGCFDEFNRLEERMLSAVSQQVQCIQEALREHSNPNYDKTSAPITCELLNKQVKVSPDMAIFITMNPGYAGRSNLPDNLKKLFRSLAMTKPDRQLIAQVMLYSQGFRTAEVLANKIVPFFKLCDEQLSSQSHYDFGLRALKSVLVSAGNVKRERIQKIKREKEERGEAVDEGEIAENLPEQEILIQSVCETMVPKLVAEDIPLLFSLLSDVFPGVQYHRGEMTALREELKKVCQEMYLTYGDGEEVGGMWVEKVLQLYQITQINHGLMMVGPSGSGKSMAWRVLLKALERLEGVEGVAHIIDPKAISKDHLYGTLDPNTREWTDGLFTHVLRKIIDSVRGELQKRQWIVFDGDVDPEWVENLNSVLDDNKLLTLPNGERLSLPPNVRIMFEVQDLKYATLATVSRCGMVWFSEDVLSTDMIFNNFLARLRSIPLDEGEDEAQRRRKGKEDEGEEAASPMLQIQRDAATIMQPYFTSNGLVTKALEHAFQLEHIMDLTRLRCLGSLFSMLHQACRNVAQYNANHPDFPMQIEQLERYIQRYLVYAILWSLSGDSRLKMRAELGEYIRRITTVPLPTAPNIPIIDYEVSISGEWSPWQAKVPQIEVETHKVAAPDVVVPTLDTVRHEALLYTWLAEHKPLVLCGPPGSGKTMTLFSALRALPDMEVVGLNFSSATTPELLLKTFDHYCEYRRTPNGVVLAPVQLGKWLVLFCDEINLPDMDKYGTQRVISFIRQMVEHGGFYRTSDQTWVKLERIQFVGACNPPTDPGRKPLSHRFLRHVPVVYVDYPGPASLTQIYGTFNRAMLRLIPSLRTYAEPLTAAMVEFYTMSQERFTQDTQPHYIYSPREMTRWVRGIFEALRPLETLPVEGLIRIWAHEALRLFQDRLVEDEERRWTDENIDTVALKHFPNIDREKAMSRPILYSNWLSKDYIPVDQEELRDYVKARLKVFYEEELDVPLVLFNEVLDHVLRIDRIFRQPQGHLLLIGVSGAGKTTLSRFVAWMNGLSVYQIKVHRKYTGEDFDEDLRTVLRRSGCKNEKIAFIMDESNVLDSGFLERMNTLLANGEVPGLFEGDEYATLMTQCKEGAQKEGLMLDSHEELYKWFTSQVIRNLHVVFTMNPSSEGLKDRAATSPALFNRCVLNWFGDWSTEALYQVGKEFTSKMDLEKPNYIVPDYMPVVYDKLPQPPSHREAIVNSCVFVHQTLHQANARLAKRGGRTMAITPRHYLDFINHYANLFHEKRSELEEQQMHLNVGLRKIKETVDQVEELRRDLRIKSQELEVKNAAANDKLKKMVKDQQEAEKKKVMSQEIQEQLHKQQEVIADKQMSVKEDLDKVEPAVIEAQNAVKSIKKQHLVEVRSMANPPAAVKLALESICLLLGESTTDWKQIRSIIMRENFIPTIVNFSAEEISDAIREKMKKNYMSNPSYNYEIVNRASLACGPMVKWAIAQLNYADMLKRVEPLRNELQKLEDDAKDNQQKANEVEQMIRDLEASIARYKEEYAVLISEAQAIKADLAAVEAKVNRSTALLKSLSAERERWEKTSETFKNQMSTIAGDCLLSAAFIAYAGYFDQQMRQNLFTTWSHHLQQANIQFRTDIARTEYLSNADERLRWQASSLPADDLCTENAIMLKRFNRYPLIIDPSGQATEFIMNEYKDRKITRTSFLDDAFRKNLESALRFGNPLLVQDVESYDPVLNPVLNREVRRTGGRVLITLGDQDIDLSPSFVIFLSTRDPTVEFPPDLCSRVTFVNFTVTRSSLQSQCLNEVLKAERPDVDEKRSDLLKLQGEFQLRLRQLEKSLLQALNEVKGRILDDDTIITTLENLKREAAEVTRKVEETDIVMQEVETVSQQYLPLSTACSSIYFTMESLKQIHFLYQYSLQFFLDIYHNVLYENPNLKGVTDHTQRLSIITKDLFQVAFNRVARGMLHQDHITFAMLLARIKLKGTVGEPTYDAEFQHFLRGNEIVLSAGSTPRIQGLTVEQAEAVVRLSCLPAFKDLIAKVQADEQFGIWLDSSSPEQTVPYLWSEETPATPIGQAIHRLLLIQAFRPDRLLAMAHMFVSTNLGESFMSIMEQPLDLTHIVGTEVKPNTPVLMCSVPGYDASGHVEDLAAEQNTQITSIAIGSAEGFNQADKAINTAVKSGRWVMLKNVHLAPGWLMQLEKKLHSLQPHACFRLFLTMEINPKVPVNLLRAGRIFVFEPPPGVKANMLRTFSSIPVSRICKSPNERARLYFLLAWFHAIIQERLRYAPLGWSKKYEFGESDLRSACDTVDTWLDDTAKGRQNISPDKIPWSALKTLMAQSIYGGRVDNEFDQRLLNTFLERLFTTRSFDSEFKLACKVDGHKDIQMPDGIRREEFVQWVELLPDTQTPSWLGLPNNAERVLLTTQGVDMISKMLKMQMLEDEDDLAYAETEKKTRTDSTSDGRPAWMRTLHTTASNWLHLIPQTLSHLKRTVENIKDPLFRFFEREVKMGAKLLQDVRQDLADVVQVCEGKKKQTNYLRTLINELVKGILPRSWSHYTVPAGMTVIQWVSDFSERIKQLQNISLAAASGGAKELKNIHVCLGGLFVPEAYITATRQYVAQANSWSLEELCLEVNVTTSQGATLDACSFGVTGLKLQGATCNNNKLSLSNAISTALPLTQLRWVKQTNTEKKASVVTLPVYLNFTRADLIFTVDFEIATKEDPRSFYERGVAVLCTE

percent of the tagged subunit incorporated into the complex: 51%
Substance: IC2-BioID-3×FLAG (natural protein)
